# From the domain aggregation screens of Martell et al. (2025)
# Experiment: soluble fraction after stress (log2 fold change); higher = more stays soluble; pooled small domains, quantitative proteomics
# Details: stress: 75 degC
# 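Further: 20 min heating vs room temperature control held 20 min.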
row,Sequence,soluble fraction (log2)
1,HMNQEIELLLREPDFTSAARLAMAINERFTNSARAIDPTSVKVRMPEGLDQASVDFVARLEDIEMSPDT,0.155
2,HMNQEQQSAVMSALKATLPDLEAALEARQFKESKQLLKTAQNQFQQLDGRNRRGFQARIQLLAGQFRELS,-0.179
3,HMNQIDDADRKRVVDEVAGQFSSMSLTEMRSDREKLLSRIIPQVQTTLNRLGLQTIDVEGIAREVIARVG,-0.0822
4,HMNQIFAPMPGLVLEVKLSEGDVVAEGESAIILEAMKMENIIKSPINGIVKKVHVKKGQTIEKNTLIISFK,-3.1
5,HMNQLSYTERRVLQVIEGGTTKTGEIEQALAAKMSRPTVHRALDALVGANRIHRLARGEYALGPAP,-0.501
6,HMNQRQKQLLSILEQQGDWMKGKALATLLAVSDRTIRSDIEKINREVEGSILSHPHKGYLLSVENRQIAET,0.107
7,HMNQSKYQTIADELKSKILSGEYPENTTIPPELQLQKDYQVSRHTIRQAIALLANEGFLRKEKGSGTYVDV,-0.147
8,HMNQTTYTVLYSGMDPADTGKVLTALNEMGVDARTQGEDTVLVPADRADEIRLELAAQGYPTS,0.06
9,HMNQYIFVLNEKGARITSFVDNTIPKEELIALAKQDYPNAADYIYSADGDSMLDEFMRGKLYVNGQFVAA,-0.843
10,HMNREIVVYITGAVDNPGLYRLPLDSRLDDVLKLAVLSTNADREVLNPAQKLKDGQKIVVPYIVE,-0.49
11,HMNRGITVIVNNEEIKMKEKAQYVVVDIFDYIDFDLTVPKGSINITLNGENTPYTASIKDGDVIEVFW,-1.09
12,HMNRIARRELMEQLFADNKITTQEQLQQLLRAEGVEVTQATISRDMRILNIVKVSDQNGNTYYKQMK,-0.171
13,HMNRIEMTEPIIIKDLSRETGIPWVAIQKRLAQDGIMANINTTIEAEKAQLIAVDYGIELAVV,-0.427
14,HMNRIGERIKRKRELRNLNLGELAEKVGISASALSQIEKSKSFPSVITLKSIAEQLRTTVGELIGEN,-0.191
15,HMNRIKIYPTPGSKVLSIENINFSLIHDFKILDIFGREVKNFTVSSEKNTKMLVDTSKLSDGLYFIFFNTF,-1.11
16,HMNRLEFLQGLKAELEGRVPHSIIQENLRYYDSYISDEAAKGQSEEDVVESLGGPRIIARTIVDAA,0.267
17,HMNRNEFMERLEYLLSDIPQEEKADAIAYYRDYLEEAGDDAGKAIQDFGSPERIAAMIRSELAG,-0.0288
18,HMNRQTGTVKWFNDAKGFGFITPESGPDLFVHFRSIQGAGFKSLQEGQRVTFVAVQGQKGMQADQVQA,-0.681
19,HMNRTKQIYNELLFRLDQGVYPPESKFPSESQLADEFSVSKVTMNKIVSMLASSGRLSRGVRGAGTFVSSP,-1.33
20,HMNRYPIQTEVHAFNDDIIKEAINFEMSRGGQIFFVNNRIPQLYELENTIHRLVPDARVVIGHGQMP,-0.216
21,HMNSFKIYPNPSSREVVRFNQAQDVKVYDTLGKLILSAKNTSAIDTKSFNTGIYFIKTANGLTKKLIV,-0.886
22,HMNSGFEVFREVVNQGSFIGAANALGISAPAVSKQIKLLENRLGLLLLYRTTRNVTLTDIGKQLFDTLDNS,-1.98
23,HMNSKKRQAILESLRSVTDHPTAEMIYNRLKPEYPDLSLGTVYRNLAMFLEEGQVISVGTVDGQERYDAR,-0.564
24,HMNSKSFIFHIEDEEGIRLDVFLADNLPDVSRSYVQKLIDEEHVKVNGQSAKSRLKTVSGMEITVDVPAPK,-0.56
25,HMNSLGYSDFVVDVQNERVASVVIEGLIINGERRDGTKFRTVLPTIGDQRLMDDLINHNVKVLARE,-0.375
26,HMNSLTVPDITNRTLAEASQVLLDMGLTPIPDAVAKDGVGDDVVYAQSPPPNVGAREGDVVTITYNPA,0.452
27,HMNSNISYSEFLSQVEKGTINSVEITGNSIKGIYADGGEFITFSPGDPGLIDKLQRSDIEILATPPA,0.233
28,HMNSPSKVIDISQLRKGMFVQLDLGWMSHPFAVGSFKVSTDEQIQTLRGLGLSEVRYIPEKSDPA,-1.2

row,Sequence,soluble fraction (log2)
1,HMNSQSGKGGVGYILETKYGLNLPPKMREAMGYAAKGVSDHLHKELHPDEIFDLFKKTFENVGQPYS,-0.271
2,HMNSSLLGKRIKSLREDHDLTQKELSLMIGLTPKMISFYENNQRTPPLDILLKLAKIFEVSVDYLIGYA,-0.615
3,HMNSTRAPYLLDFEEDAAIREARRAGLVPRIARQPSGEPVGRVILQSHDYDYPMKRGDTILITISSG,-0.833
4,HMNSTSGIAGVGYWINQYRKKKGMSPVDKKSPLVRRVYDWVQEQYDEGRITIISDAELTRQTELAMEA,-0.482
5,HMNSVAASLREISIKVSGTEDADKVSRLQELSQMPKLDASGIAEANTLLEQLRAKYGDLGLSVDTARGRIV,0.494
6,HMNSVSIAPEMLNWVIAHIQMNSLPKQIVEHLTAWISGQKEPTFNQIEKVSRATGIPLGYFFLEQPPKE,-2.51
7,HMNSYKGELLVDDKNIRLDLYLFNQFNFFSRTKIKNYILKGNVLVNNNKTSPSYILKGSEKIYYDFSVS,-3.21
8,HMNTEVDKVLLRSGEAYFGEVLLRNDELVMMKTQDGARFQFPVSEIKSIEKVSVADALRHINS,0.263
9,HMNTGFPIILETSDAANLTVGAPIMYRGVEVGKIRNMELNSLGDRVLIHILIGHKYQHLVRQNSEFWFSS,-4
10,HMNTKDRIKQLAAQRKITIAELERKLHIANGTIGKWDKQNPSIEPLKKLADYFGVTTDYLLGRT,-0.381
11,HMNTKLKPLYLLDIFREMTDERHRMTVPELLEELQRRGITAERKGIYRDIDALIQYGADIKHTGTGYYLAR,-0.93
12,HMNTKLSYSDLIEKIEAGQVEKVELDAGGSSAIVKLKNDNIEKRVNVPSIDNLMENLQDNMKTGNISVTE,0.168
13,HMNTLLGLSNSFQDNKDLENANSISRRFISYRPRSEAELRIRLLKVFSHEIVLESVAQMYREGLLNDQRF,-3.18
14,HMNTLTKEDIQKAIDVIPIDFKSVVILNLVEGFSYKETAEILEIPIGTVMSRLHRGRKILQKLLWEYSSSK,-1.4
15,HMNTTTTKVVSVSSLNMRSGPSTSYNIIEVLTKDTQVEVISVEDGWAKIKYNSKTGYVSNQYLSDKK,-0.934
16,HMNTVAKELATQATQAKKRAFLDAYAETGIIKRAAEIAGIERKSHYLWLEKDPEYVEAFKSAGEQ,0.427
17,HMNTVSVGNLGLSVRAVNALKQAGIDTYDKLQELSWEELLLIPKLGQVTAAEIYRFITSYKKG,-1.56
18,HMNVAETITLGKRLFNHALTILGKKQRNISRKQLKNFLNDLGLKDSKDLYESIGTGDKNPILMAQLLLG,-0.512
19,HMNVAVGNSKLVGVAGERAYFVNGVGAAARTLSLQVGDALPTGEKVRRIERDGVTMTGASGDVRLSVLP,0.00812
20,HMNVDALIGTKGIVVQPIRPFAVGQVKVNGQVWSAVGKTPETDIEQGREVKVHAIEGVKLVVTPT,0.501
21,HMNVDALVGMPARVTRAFVQGAGEVKLDNGETWTARLSAGVTDAEASVGQTVSVIAVRGAAVEVAPE,0.0183
22,HMNVDSLIGKKARVLEDIDNLNAKGQVSIDGMEWTARSEDGSEIKKDALVEVVAIEGVKAIVKQ,0.242
23,HMNVEQQNQARENIKRLMEEQGLSQPKLSEKAGIAFGTLSRILRGKQDLTIQTAEKIADALGLSVYDLAE,0.31
24,HMNVKVSVDDIARPGLMASGRVTFADGNRGMWYVDEMGRLGIDPEVEGYQPSEADIQAFQRELQSVMES,-0.00333
25,HMNVNSQQINDLEKSIQKFFDKDIKNYLNQNLSNDRMISKNEIDKIILLYYGSDKEPTLDEIKSIFN,-0.216
26,HMNVNTHKTLILNSTFQPLSLATPQRALALLFSKKINVLKESDIKLRSVGQSVAIPKVAVLTYFVKA,-0.409
27,HMNVPFGYTIKDGLLVEQPDEKAILDNILTWKKGQMTVAEIAKKTGMETWKIYGILNYWRNK,-1.14
